Data from patent US20240425828.

Assays:
[1] = molecular target: Prototype foamy virus integrase (PFV IN) wild type, tetrameric intasome (Prototype foamy virus) (UniProt P14350); settings: smTIRF FRET, stalling at gap; 110 mM NaCl, 2 mM MgSO4, 24 C
[2] = molecular target: Prototype foamy virus integrase (PFV IN) wild type, tetrameric intasome (Prototype foamy virus) (UniProt P14350); settings: smTIRF lifetime at physiological buffer; searches 1.6 kb; integration rare

| Substance | binding (% of search events with integration) [1] | binding [2] |
| --- | --- | --- |
| 60 bp target DNA with 1 or 2 base gap | 20 | – |
| 23 kb naked linear DNA | – | 2.1 s |
